From patent publication US20150030603A1 (SAMSUNG ELECTRONICS, published 2015)
One block for each binder: values may come before it.

Assays:
[1] = biological target: FLAG-tagged Ang2 RBD mutant Q418A (human) (UniProt O15123); experiment: ELISA; 10D6 coated (1000 nM), 250 ng FLAG-tagged Ang2 RBD mutant, anti-FLAG-HRP, OD450; reference native Ang2; cell may be cut off at the left
[2] = biological target: FLAG-tagged Ang2 RBD mutant P419A (human) (UniProt O15123); experiment: as above
[3] = biological target: FLAG-tagged Ang2 RBD mutant at A449 (substituted with alanine (so in the source)) (human) (UniProt O15123); experiment: as above
[4] = biological target: T1, recombinant hAng-2 (C-His, R&D Systems) (human, UniProt O15123 19-496); experiment: cell-based or functional assay
T1 sequence: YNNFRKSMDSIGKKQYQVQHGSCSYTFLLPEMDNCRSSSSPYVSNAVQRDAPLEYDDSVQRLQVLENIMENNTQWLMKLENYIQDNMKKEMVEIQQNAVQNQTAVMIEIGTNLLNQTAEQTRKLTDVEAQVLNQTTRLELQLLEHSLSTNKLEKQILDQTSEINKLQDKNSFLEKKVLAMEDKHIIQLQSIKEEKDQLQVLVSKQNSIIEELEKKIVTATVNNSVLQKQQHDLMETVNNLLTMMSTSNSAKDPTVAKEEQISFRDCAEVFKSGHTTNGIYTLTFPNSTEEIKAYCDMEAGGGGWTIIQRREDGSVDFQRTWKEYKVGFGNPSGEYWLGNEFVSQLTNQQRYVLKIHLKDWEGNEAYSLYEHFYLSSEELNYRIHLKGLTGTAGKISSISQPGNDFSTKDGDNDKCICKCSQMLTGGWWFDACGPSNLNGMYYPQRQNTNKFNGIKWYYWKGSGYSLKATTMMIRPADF

[5] = biological target: T2, BSA (bovine, UniProt P02769); experiment: ELISA: coated BSA, FLAG-Ang2 0.25 µg/ml and 10D6 2 µg/ml, detected with anti-mouse IgG-HRP (OD450)
T2 construct: commercial preparation (Sigma); named on the sheet under 'Coating:'; also called bovine serum albumin (Sigma); control coating
T2 sequence (P02769 25-607 limits assumed): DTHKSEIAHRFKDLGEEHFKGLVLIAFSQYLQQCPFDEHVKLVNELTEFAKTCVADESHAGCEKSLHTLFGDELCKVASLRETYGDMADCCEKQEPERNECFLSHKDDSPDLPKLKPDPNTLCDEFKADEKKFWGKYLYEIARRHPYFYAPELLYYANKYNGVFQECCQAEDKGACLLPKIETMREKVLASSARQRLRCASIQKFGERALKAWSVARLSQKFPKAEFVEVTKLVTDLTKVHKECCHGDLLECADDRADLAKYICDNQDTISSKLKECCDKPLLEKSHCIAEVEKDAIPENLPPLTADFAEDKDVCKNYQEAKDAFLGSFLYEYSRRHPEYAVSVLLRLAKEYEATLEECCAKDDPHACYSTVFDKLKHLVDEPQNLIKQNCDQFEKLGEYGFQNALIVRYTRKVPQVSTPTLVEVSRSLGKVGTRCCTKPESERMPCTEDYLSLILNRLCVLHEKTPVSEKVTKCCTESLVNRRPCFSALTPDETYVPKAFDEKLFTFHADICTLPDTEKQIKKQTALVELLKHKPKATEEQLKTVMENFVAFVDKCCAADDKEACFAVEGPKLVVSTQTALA
Protocol: A 96-well MaxiSorp™ flat-bottom plate (Nunc) was coated with 4 μg/ml of Tie2-Fc (R&D systems) or BSA (Sigma). Then, the plate was washed five times with 0.05% (v/v) Tween-20-containing PBS (Phosphate Buffer Saline) and blocked with 1% (v/v) BSA (Bovine serum albumin; Sigma)-containing PBS at a room temperature for 2 hours. 0.25 μg/ml of Ang2 and 2 μg/ml of 10D6 antibody were added to each well of the plate, which was allowed to react at a room temperature for 2 hours and then washed five times with PBST. After that, an anti-mouse IgG antibody (Sigma) conjugated with HRP diluted in 1% (v/v) BSA-containing PBS at a ratio of 1:5,000 (v/v) was added in an amount of 100 ul to each well to react at a room temperature for 1 hour and then, the plate was washed five times with PBST. Lastly, 100 ul (microliter) of TMB substrate (Cell Signaling) was added to each well of the plate to induce color development for 3 min. and then, the reaction was ceased by the addition of 100 ul of Stop solution (Cell Signaling) and OD450 values were measured on a plate reader (Molecular Devices).

binding affinity (%) with mutant Ang2 against the binding affinity with the native Ang2 [1]: 8.94%
binding affinity (%) with mutant Ang2 against the binding affinity with the native Ang2 [2]: 1.08%
binding affinity (%) with mutant Ang2 against the binding affinity with the native Ang2 [3]: 7.86%
Tie2 phosphorylation effect against the control antibody RG [4]: ~8.6 fold against RG antibody
Tie2 phosphorylation level (pTyr/Tie2 ratio) in HUVEC cells, 60 nM antibody with Ang2 [4]: 180 % increase against Ang2 alone
B1: SAIT-ANG2-AB-m10D6 (antibody, V domains shown)
VH: DVQLQESGPGLVKPSQSLSLTCTVTGYSITSDYAWNWIRQFPGNKLEWMGYINYSGNTDYNPSLKSRSSITRDTSKNQFFLQLNSVTTGDTATYYCARGNFEGAMDYWGQGTSVTVSS
VL: SIVMTQTPKFLLVSAGDRVTITCKASQSVSNDVAWYQQKPGQSPKLLIYYASNRYPGVPDRFTGSGYGTDFTFTISTVQAEDLAVYFCQQDYSSPWTFGGGTKLEIK

binding result [5]: no binding (tested: 0.25 µg/ml)
B2: FLAG-tagged hAng-2 (ligand)
chain: T1 sequence
notes: not shown: FLAG tag
